Target: T1, Human APOBEC-2 (APO2) containing residues 41-224 (human), Q9Y235
T1 chain: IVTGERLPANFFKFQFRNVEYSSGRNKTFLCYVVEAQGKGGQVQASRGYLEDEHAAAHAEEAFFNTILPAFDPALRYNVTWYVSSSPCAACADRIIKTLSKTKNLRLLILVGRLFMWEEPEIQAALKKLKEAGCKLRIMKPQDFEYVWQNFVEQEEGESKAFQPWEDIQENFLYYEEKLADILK
Experiment: X-ray crystal structure, tetramer interface
Conditions: remark: other sources report otherwise

B1: Human APOBEC-2 (APO2) containing residues 41-224, Q9Y235 41-224 (enzyme, UniProt Q9Y235 41-224, looked up)
chain: T1 chain
Q: With B1 as the binder, how does the total buried area within the tetramer interface read?
A: Its total buried area within the tetramer interface is 1740 Å^2.
